# Reference: patent publication US20240101652A1 (SINGH BIOTECHNOLOGY, published 2024)
# Several values for one entry are separate records, joined by “and”; a condition that tells them apart may be missing. Identical values can stand only once.
# B1: Anti-KRAS/Anti-STAT3 VHH (SBT-100 (SEQ ID NO: 1)) (VHH)
# VHH: HVQLVESGGGSVQAGGSLRLSCAASGANGGRSCMGWFRQVPGKEREGVSGISTGGLITYYADSVKGRFTISQDNTKNTLYLQMNSLKPEDTAMYYCATSRFDCYRGSWFNRYMYNSWGQGTQVTVSS
# B2: Anti-KRAS VHH (SBT-102 (SEQ ID NO: 2)) (VHH)
# VHH: EVQLVESGGGSVQTGGSLRLSCAVSGNIGSSYCMGWFRQAPGKKREAVARIVRDGATGYADYVKGRFTISRDSAKNTLYLQMNRLIPEDTAIYYCAADLPPGCLTQAIWNFGYRGQGTLVTVSS
# Key:
# [1] = molecular target: STAT3 (endogenous, in human cells and from lysed cancer cell lines) (human, UniProt P40763 2-770); assay: cell-based or functional assay
# [2] = molecular target: T1, Human STAT3 Protein (recombinant) (human, UniProt P40763 1-770); assay: SPR, Biacore 3000
# T1 construct: also called recombinant STAT3
Binder,"IC50, STAT3 luciferase reporter assay in HEK 293 cells after IL-6 stimulation [1]",binding result [2]
B1,2.68 µg/mL and 0.18 µM,–
B2,–,no binding
